Experiment [1] concerns the target T1, Recombinant RON-Fc (human, UniProt Q04912 25-571).
T1 construct: also called recombinant human RON receptor; MSP-R; not shown: Fc part of the bought RON-Fc (Sigma-Aldrich)
T1 sequence (looked up): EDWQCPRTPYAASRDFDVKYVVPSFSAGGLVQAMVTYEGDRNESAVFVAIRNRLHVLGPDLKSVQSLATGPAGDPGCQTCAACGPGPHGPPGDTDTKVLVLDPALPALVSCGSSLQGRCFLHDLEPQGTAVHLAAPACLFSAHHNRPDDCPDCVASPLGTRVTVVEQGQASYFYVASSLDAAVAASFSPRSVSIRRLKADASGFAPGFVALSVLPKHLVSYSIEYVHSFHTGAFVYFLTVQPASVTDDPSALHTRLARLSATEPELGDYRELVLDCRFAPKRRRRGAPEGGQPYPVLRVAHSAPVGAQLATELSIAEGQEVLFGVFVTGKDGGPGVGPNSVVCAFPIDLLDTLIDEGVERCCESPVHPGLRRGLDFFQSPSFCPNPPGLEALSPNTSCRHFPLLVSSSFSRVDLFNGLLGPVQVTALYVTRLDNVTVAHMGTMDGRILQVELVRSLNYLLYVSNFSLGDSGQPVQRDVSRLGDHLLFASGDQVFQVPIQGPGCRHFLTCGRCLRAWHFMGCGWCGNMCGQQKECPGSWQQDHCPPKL
In words: ELISA, blocking of the MSP/RON interaction. How it is done:
ELISA to Detect Fab Antibodies That Block the MSP/RON Interaction. Maxi-sorp 96-well microtiter plates (Nunc) were coated with (1 μg/ml×100 μl) MSP (R&D Systems) at RT for 1.5 hours. After washing the wells, they were blocked with 3% PBS/milk. Anti-RON phage antibodies that were converted to Fab or full IgG were pre-incubated with RON-Fc (25 ng/well) at RT for 1 hour. The Fab/RON-Fc or IgG/RON-Fc mixtures were then added to the MSP-coated wells and allowed to incubate for 1.5 h at RT.
ELISA for Determination of IC50 and ED50 The ability of the anti-RON antibodies, IMC-41A10 and IMC-41B12, to bind to recombinant human RON receptor and to block the MSP/RON interaction were measured using ELISA.

Experiment [2] concerns the target T1, Recombinant RON-Fc. In words: BIAcore 3000 SPR, RON-Fc immobilized, Fab or antibody injected. How it is done:
BIAcore-Analysis. The binding kinetics of soluble Fab and antibody proteins to RON was determined by using a BIACORE 3000 (BIAcore, Piscataway, N.J.). Recombinant RON-Fc was immobilized onto a sensor chip, and Fab or antibody was injected at various concentrations. Sensorgrams were obtained and evaluated using BIA Evaluation 2.0 software to determine rate constants. The affinity constant, KD, was calculated from the ratio of the rate constants Koff/Kₒₙ. The “Kon, M⁻¹.S⁻¹” and “Koff, S⁻¹” rates of the interaction were used to determine the affinity (Kd, M) of the antibody/receptor interaction. […] For IMC-41B12, they were: 1e-10, 1.7e6 and 1.7e-4.

Experiment [3] has as its target T1, Recombinant RON-Fc. The experiment can be described thus: ELISA, recombinant human RON receptor immobilized on the plate. On the technique in general: An ELISA detects its analyte on a solid surface through an enzyme-linked reagent.

A word on the IC50: it is the concentration at which inhibition is half-maximal. A word on the Kd: it is the concentration at which binding is half-saturated. The term koff denotes the rate constant with which the complex falls apart. A word on the kon: it is the rate constant with which the complex forms. As a reminder, the EC50 is the concentration at which the effect is half-maximal.

B1: IMC-41A10 (antibody, V domains shown)
VH: EVQLVQSGGGLVKPGGSLRLSCAASGFTFSSYAMHWVRQAPGKGLEWVAVISYDGSNKYYADSVKGRFTISRDNSKNTLYLQMNSLRAEDTAVYYCARFSGWPNNYYYYGMDVWGQGTTVTVSS
VL: DVVMTQSPLSLPVTPGEPASISCRSSQSLLHSNGFNYVDWYLQKPGQSPHLLIYFGSYRASGVPDRFSGSGSGTDFTLKISRVEAEDVGVYYCMQALQTPPWTFGQGTKVEIR
notes: also called anti-RON IMC-41A10 antibody; IMC-14A10
B1: the IC50 with Recombinant RON-Fc [1] worked out at 2 nM. For the same molecule, in the experiment with Recombinant RON-Fc [2], the Kd was determined as 1.5 nM, the koff is 0.00013 s⁻¹ and the kon came out at 84000 M⁻¹ s⁻¹. Further, the EC50 with Recombinant RON-Fc [3] came to 0.15 nM.

B2: IMC-41B12 (antibody, V domains shown)
VH: QVQLQESGPGLVKPSEILSLTCTVSGGSISSHYWSWVRQPPGKGLEWIGYIYYSGSTNYNPSLKSRVTISVDTSKNQFSLNLSSVTAADTAVYYCARIPNYYDRSGYYPGYWYFDLWGRGTLVTVSS
VL: QAVLTQPSSLSAPPGASASLTCTLRSGFNVDSYRISWYQQKPGSPPQYLLRYKSDSDKQQGSGVPSRFSGSKDASANAGILLISGLQSEDEADYYCMIWHSSAWVFGGGTKLTVLR
notes: also called IMC-14B12
In the case of B2, the half-maximal inhibitory concentration (IC50) in the experiment with Recombinant RON-Fc [1] worked out at 2 nM. Besides, in the experiment with Recombinant RON-Fc [2], the dissociation constant (Kd) is 0.1 nM, the koff amounted to 0.00017 s⁻¹ and the kon worked out at 1.7e+06 M⁻¹ s⁻¹. The concentration giving a half-maximal response (EC50) with Recombinant RON-Fc [3] was 0.1 nM.

(Values after patent US20090246205A1 (Eli Lilly, published 2009).)
